Patent US20140170153A1 (Novo Nordisk, published 2014)
Where “and” joins values, the source holds several entries; their conditions need not be identical. Equal values may be shown once.

Columns and labels:
[1] = target: T1, human recombinant IL-21 (expressed in E. coli as the mature peptide); residues 30-162 of SEQ ID NO: 1 with an … (human, UniProt Q9HBE4 30-162); test: SPR Biacore T200, 25 C; mAb captured by anti-human Fc, hIL-21 analyte, 1:1 Langmuir; Exp 2
T1 construct: The SPR and cell assays say only IL-21 / hIL-21 / recombinant human IL-21; also called hIL-21; human IL-21
Method: (§1) Anti-human Fc monoclonal antibodies from Biacore human Fc capture kit was immobilized onto flow cells of a CM4 sensor chip according to the manufacturer's instructions. The final immobilization level of capture antibody was approximately 2,500 RU in one experiment. […] Binding of hIL-21 protein was conducted by injecting analyte over all flow cells to allow for comparative analyses of binding to different captured anti-IL-21 antibodies relative to binding to the reference flow cell. hIL-21 protein was diluted serially 1:3 to 2-162 nM into running buffer, injected at 100 μl/min for 210 s and allowed to dissociate for 600 or 14000 s. The CM4 surface was regenerated after each injection cycle of analyte via two injections of 3M MgCl₂ at 50 μl/min. This regeneration step removed the anti-IL-21 antibody and any bound IL-21 from the immobilized capture antibody surface, and allowed for the subsequent binding of the next interaction sample pair.
(§2) No significant non-specific binding to the reference control surface was observed. Binding curves were processed by double referencing (subtraction of reference surface signals as well as blank buffer injections over captured anti-IL-21 antibodies). This allowed correction for instrument noise, bulk shift and drift during sample injections.

[2] = target: T1, human recombinant IL-21 (expressed in …); test: SPR Biacore T200, 25 C; mAb captured by anti-human Fc, IL-21 analyte, 1:1 Langmuir
Method: (§3) Experiments were run at 25° C. and the samples were stored at 10° C. in the sample compartment. The signal (RU, response units) reported by the Biacore is directly correlated to the mass on the individual sensor chip surfaces in four serial flow cells.
Anti-human Fc monoclonal antibody from Biacore human Fc capture kit was immobilized onto flow cells of a CM4 sensor chip according to the manufacturer's instructions. The final immobilization level of capture antibody was approximately 2,000 RU in one experiment. […] Capture of the human anti-IL-21 antibody mAb37 was conducted by diluting the antibody to 0.1 μg/ml into running buffer (10 mM Hepes 0.3 M NaCl, 5 mM CaCl2, 0.05% surfactant P20, pH 8.0 containing 1 mg/ml BSA) and injected at 10 μl/min for 180 s in one of flow cells 2-4, creating a reference surface in flow cell 1 with only anti-Fc antibody immobilized. […] Binding of IL-21 protein was conducted by injecting analyte over all flow cells to allow for comparative analyses of binding to different captured anti-IL-21 antibodies relative to binding to the reference flow cell. IL-21 protein was diluted serially 1:3 to 0.2-54 nM into running buffer, injected at 100 μl/min for 210 s and allowed to dissociate for 600 or 14000 s. The CM4 surface was regenerated after each injection cycle of analyte via two injections of 3M MgCl₂ at 50 μl/min. This regeneration step removed the anti-IL-21 antibody and any bound IL-21 from the immobilized capture antibody surface, and allowed for the subsequent binding of the next interaction sample pair. […] No significant non-specific binding to the reference control surface was observed.

[3] = target: T1, human recombinant IL-21 (expressed in …); test: as above; remark: listed apart in the source
Method: as §3
Anti-human Fc monoclonal antibody from Biacore human Fc capture kit was immobilized onto flow cells of a CM4 sensor chip according to the manufacturer's instructions. The final immobilization level of capture antibody was approximately 2,000 RU in one experiment. […] Capture of the human anti-IL-21 antibody mAb37 was conducted by diluting the antibody to 0.1 μg/ml into running buffer (10 mM Hepes 0.3 M NaCl, 5 mM CaCl2, 0.05% surfactant P20, pH 8.0 containing 1 mg/ml BSA) and injected at 10 μl/min for 180 s in one of flow cells 2-4, creating a reference surface in flow cell 1 with only anti-Fc antibody immobilized. […] Binding of IL-21 protein was conducted by injecting analyte over all flow cells to allow for comparative analyses of binding to different captured anti-IL-21 antibodies relative to binding to the reference flow cell. IL-21 protein was diluted serially 1:3 to 0.2-54 nM into running buffer, injected at 100 μl/min for 210 s and allowed to dissociate for 600 or 14000 s. The CM4 surface was regenerated after each injection cycle of analyte via two injections of 3M MgCl₂ at 50 μl/min. […]

[4] = target: T1, human recombinant IL-21 (expressed in …); test: SPR Biacore T200, 25 C; mAb captured by anti-human Fc, hIL-21 analyte, 1:1 Langmuir; Exp 1
Method: as §1, §2

[5] = target: T1, human recombinant IL-21 (expressed in …); test: SPR Biacore T200, calculated KD; Exp 2
Method: as §1, §2

[6] = target: T1, human recombinant IL-21 (expressed in …); test: SPR Biacore T200, calculated KD; Exp 1
Method: as §1, §2

[7] = target: T1, human recombinant IL-21 (expressed in …); test: cell-based or functional assay

T1 sequence (Q9HBE4 other isoform, or with tags, fused parts or gaps): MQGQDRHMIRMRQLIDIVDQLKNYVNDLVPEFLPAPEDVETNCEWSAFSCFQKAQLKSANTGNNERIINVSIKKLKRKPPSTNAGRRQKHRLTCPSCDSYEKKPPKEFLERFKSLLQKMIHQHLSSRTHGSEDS

B1: mAb37 (hinge stabilized S241P version of mAb14) (antibody, human IgG4 S228P, kappa)
heavy: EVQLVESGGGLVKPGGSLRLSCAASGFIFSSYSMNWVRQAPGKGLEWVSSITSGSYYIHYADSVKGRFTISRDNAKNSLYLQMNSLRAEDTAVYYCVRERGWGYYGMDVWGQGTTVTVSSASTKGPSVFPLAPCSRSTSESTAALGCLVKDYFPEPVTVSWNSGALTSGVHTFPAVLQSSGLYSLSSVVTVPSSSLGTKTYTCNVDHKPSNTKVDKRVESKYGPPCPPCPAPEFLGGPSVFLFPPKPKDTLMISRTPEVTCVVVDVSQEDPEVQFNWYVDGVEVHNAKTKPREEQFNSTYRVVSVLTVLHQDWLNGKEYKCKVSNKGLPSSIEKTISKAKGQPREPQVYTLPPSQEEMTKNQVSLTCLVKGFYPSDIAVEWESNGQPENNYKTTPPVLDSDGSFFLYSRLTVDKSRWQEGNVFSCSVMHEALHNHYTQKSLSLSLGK
light: AIQLTQSPSSLSASVGDRVTITCRASQDIDSALAWYQQKPGKAPKILIHDASSLESGVPSRFSGSGSGTDFTLTISSLQPEDFATYYCQQFNSYPYTFGQGTKLEIKRTVAAPSVFIFPPSDEQLKSGTASVVCLLNNFYPREAKVQWKVDNALQSGNSQESVTEQDSKDSTYSLSSTLTLSKADYEKHKVYACEVTHQGLSSPVTKSFNRGEC
notes: Human IgG4(S241P), kappa; recombinant from HEK293-6E; also called WT mAb37
koff [1]: < 1e-05 s⁻¹
kon [1]: 660000 M⁻¹ s⁻¹ and 620000 M⁻¹ s⁻¹
Kd [2]: 7 pM and 7.5 pM and 11 pM
koff [2]: 4.5e-06 s⁻¹ and 6.4e-06 s⁻¹
kon [2]: 640000 M⁻¹ s⁻¹ and 600000 M⁻¹ s⁻¹
Kd [3]: < 20 pM
koff [4]: < 1e-05 s⁻¹
kon [4]: 570000 M⁻¹ s⁻¹ and 590000 M⁻¹ s⁻¹ and 580000 M⁻¹ s⁻¹
Kd [5]: < 15 pM
Kd [6]: < 17 pM
IC50 (nM) in B cell proliferation assay, Donor 1 [7]: 0.14 nM
IC50 (nM) in B cell proliferation assay, Donor 2 [7]: 0.18 nM
